# From patent US20170174776A1
# Columns and labels:
# [1] = molecular target: fusion protein of the human transferrin receptor extracellular domain linked to human IgG1 Fc (human) (UniProt P02786); test: ELISA, coated human TfR ECD-Fc, pH 7.4
# [2] = molecular target: fusion protein of the human transferrin receptor extracellular domain linked to human IgG1 Fc (human) (UniProt P02786); test: ELISA, coated human TfR ECD-Fc, pH 5.5 against pH 7.4
# [3] = molecular target: fusion protein of the human transferrin receptor extracellular domain linked to human IgG1 Fc (human) (UniProt P02786); test: ELISA, coated human TfR ECD-Fc, pH 5.5
# Chain of fusion protein of the human transferrin receptor extracellular domain linked to human IgG1 Fc (human) (P02786 89-760): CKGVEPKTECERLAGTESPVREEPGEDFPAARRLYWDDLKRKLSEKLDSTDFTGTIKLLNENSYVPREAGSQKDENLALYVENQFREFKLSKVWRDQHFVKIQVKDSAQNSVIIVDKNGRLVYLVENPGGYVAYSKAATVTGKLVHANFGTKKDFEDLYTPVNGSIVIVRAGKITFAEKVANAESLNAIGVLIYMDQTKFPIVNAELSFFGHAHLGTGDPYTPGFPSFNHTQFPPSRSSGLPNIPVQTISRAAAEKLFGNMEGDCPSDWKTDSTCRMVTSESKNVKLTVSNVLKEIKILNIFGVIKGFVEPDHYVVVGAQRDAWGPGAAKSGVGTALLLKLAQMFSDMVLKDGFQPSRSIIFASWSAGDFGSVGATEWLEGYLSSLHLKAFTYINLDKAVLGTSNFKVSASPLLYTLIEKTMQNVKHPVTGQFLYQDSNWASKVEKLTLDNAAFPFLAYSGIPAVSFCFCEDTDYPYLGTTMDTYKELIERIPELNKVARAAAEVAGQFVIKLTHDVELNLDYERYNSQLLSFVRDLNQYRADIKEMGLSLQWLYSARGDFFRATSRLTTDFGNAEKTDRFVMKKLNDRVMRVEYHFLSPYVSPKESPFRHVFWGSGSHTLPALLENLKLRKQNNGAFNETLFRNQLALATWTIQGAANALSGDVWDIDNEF
EC50 [1] [µg/mL],ratio EC50 pH 5.5/EC50 pH 7.4 [2],EC50 [3] [µg/mL],Substance
0.065,10.6,0.691,mAb OKT-9 (antibody)
,,0.59,mAb MEM-75 (antibody)
0.0642,> 15.6,> 1,mAb MEM-189 (antibody)
